# Assay results from the nanobody polyreactivity screen of Harvey et al. (2022).
# Assay: yeast display, Sf9 membrane polyspecificity reagent, FACS + sequencing; frameworks hold sequencing errors
# Outline: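 Nanobodies came from a synthetic yeast display library in Saccharomyces cerevisiae BJ5465, induced with galactose for 36–48 hours and stained for 1 hour at 4 °C with 10% biotinylated, detergent-solubilized Sf9 membrane reagent. Cells were enriched on streptavidin microbeads and then FACS-sorted, with low and high (top ~1%) gates set on anti-HA fluorescence for expression and streptavidin fluorescence for reagent binding. Each polyreactivity label reflects the gate a clone came from. Genes were amplified by colony PCR, sequenced by MiSeq 2 × 250 and filtered by CDR length.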
row,Sequence,polyreactivity (PSR sort gate)
1,QVQLQESGGGLVQAGGSLRLSCAASGSISLGDNMGWYRQAPGKEREFVATISVGGITYYVDSVKGRFTISRDIAKNTVYLQMNSLKPEDTAVYYCAALDIYYFRYYYWGQGTQVTVSS,low polyreactivity
2,QVQLQESGGGLVQAGGSLRLSCAASGSISRLDYMGWYRQASGKERELVAAIDNGSTTYYADSVKGRLTISRDNAKYTVYLQMNSLKPADTAVYFCAAVRGRGGTHAYWGQGTQVTVSG,low polyreactivity
3,QVQLQESGGGLVQAGGSLRLSCAASGSISSRDAMGWYRQAPGKEREFVATIASGTTTYYADSVKGSFTISRDNAENTVYLQTYRLKPEDTAVYYCAAPTIQIYPFYYWGQGTQVNVSS,high polyreactivity
4,QVQLQESGGGLVQAGGSLRLSCAASGSNFDTPTMGWYRQAPGKERELVASIAYDDNTYYADSVKGRFTISRYNAKNTVYLQMNSLKPGETAVYYCAVTDRIYYYFVYWGQGTRVTVSS,high polyreactivity
5,QVQLQESGGGLVQAGGSLRLSCAASGTFSPLPAMGWYRQAPGKERECVAGNDTGAITNYADSVKGRFTISRDNAKNTVYLQMNSLKPDDTAVYYCAVFPAAYVYYVRYYTYWGQGTQVTVCS,low polyreactivity
6,QVQLQESGGGLVQAGGSLRLSCAASGTIFRFRYMGWHRQAPGKERELVAGINGGTTTYYADSVIGRFTISRDNAKNTVYLQMNSLKPEDTAVYYCAADVNYYQHRLYYWGQGTQVTVSS,low polyreactivity
7,QVQLQESGGGLVQAGGSLRLSCAASGTIFRISDMGSYRQAPGKDLEFVAAITYGANTYYADSGKGRFTISRDNAKNTVYLQMNSLKPEDTAVYYCAVPPVKETILDYWGQGTQVTVSS,low polyreactivity
8,QVQLQESGGGLVQAGGSLRLSCAASGTIFTARFMGWYRQAPGKERELVATITDGGNTNHADSVKGRFTISRDNAKNTVYLQMNSLKPEDAAVDYCAAGEVDNDTLLYWGQGSQVTVSS,low polyreactivity
9,QVQLQESGGGLVQAGGSLRLSCAASGTIFWLWAMGWYCQAPGKERELVASISSGGTTYHADSVKGRFTISRDNAKNTVYLQMNSLKPEDTAVYYSAAFYVATAKLGFWGQGSQVTVSS,low polyreactivity
10,QVQLQESGGGLVQAGGSLRLSCAASGTISDSGLMGWYRQAPGKERELVAGISSGGITNYADSVKGRFTISRDNAKNTVYLQMKSLKPEDTAVYWGQGTQVTVSS,low polyreactivity
11,QVQLQESGGGLVQAGGSLRLSCAASGTISDSGLMGWYRQAPGKERELVAGISSGGITNYADSVKGRFTISRDNAKNTVYMQMNSLKPEDTAVYWGQGSQVTVSS,low polyreactivity
12,QVQLQESGGGLVQAGGSLRLSCAASGTISPLPAMGWYRQAPGKEREFVAGIDTGAITNYADSVKGRFTISRDNAKNTVYLQMISLKPEDTAVYYCAVFPAAYYYYERFYTYWGQGTQVTVSS,low polyreactivity
13,QVQLQESGGGLVQAGGSLRLSCAASGTISPLPAMGWYRQAPGKEREFVAGIDTGAITNYADSVKGRFTISRDNAKNTVYLQMNSLKPEDTPVYYCAATFYYSGHDDYWGQGTQVPVSS,low polyreactivity
14,QVQLQESGGGLVQAGGSLRLSCAASGTISQEDWMGLYRQAPGKEREFVAAIGLGSNTNYADSLKGRFTISRDNAKNTVYLQMNSLKPEDTAVYYCAVSVWQYSDHVYRGQGTQVTVSS,low polyreactivity
15,QVQLQESGGGLVQAGGSLRLSCAASGTITVLYKMGWFRQAPGKEREFVASINYGTSTYYADSVKGRFTVSRDSAKNTVYLQMNSLKPEDTAVYFCSAAFRWQDVYRYWGQGTQVTVSS,low polyreactivity
16,QVQLQESGGGLVQAGGSLRLSCAASGYIFPTAIMGWYLQATGKERKLVAAINPGSNTYYADSVKGRFTFSRDNAKNTVYLQMYSLKPEDAAVYYCAVSIWLEGTLDYWGQGTQVTVSS,low polyreactivity
17,QVQLQESGGGLVQAGGSLRLSCAASGYIPLAQTIGSYRQAPGKEREFVASIALGSSTYYTDSVKGSFTISRDNAKTTVYLQMNSLKPEDTAVYYCAARVGACYAHDYWGQGTQVTVSS,low polyreactivity
18,QVQLQESGGGLVQAGGSLRLSCAASGYISDGYVMGWYRQAPGKEREFVATISGGTTAYYADSVKGRFTISRDNAKNTVYLQMNSLKPEDTAVYYCAAETSYYWDYDYWGHGTQVTVSS,high polyreactivity
19,QVQLQESGGGLVQAGGSLRLSCAASGYISHADEMGWYRQAPGKVHELVASISNGGSTNYADSVKGRFTISRDNAKNTVYLQMNSLKSEDTAVYYCAAWTGQVDIHYYWGQGTQVTVSS,low polyreactivity
20,QVQLQESGGGLVQAGGSLRLSCAASGYISLAQTIGWYRQAPGTEREFVASIALGSSTYYTDSVKGSFTISRDNAKTTVYLQMNSLKPEDTAVYYCAARVGASYAHDYWGQGTQVTVSS,low polyreactivity
21,QVQLQESGGGLVQAGGSLRLSCAASGYISLAQTKGWYRQEPGKEREFVASIALGSSTYYTDSVKGSFTISRDNAKTTVYLQMNSVKPEDTAVYYCAARVGASYAHDFWGQGTQVTVSS,low polyreactivity

row,Sequence,polyreactivity (PSR sort gate)
1,QVQLQESGGGLVQAGGSLRLSCAASGYISQSSVMGWYRQAPGKEREFVASISYGATTYYADSVKGRFTISRDNAKNTVYLQTNSPKPEDTAVYYCAVWVKRGFSHRYWGQGTQVTVSS,high polyreactivity
2,QVQLQESGGGLVQAGGSLRLSCAASGYISSWYPKGWYRQAPGQEREFVATIAPGATTYYADSVKGRFTMSRDYAKNTVYLQMNSLKPEDTAVYYCAAGPENNDFYSYWGQGTQVTVSS,low polyreactivity
3,QVQLQESGGGLVQAGGSLRLSCAASGYNSFSGYMGRYRQAPGKEREFVDSITPGRSTYYADSVKGRFTISRDNAEITVYLQMNSLKPEDTGVYYCAADDSRTEQHDYWGQGTQVTVSS,high polyreactivity
4,QVQLQESGGGLVQAGGSLRLSCAASGYNSHADEMGWYRQAPGKEHELVASISNGGSTNYADSVKGRFTISRDNANNTVYLQMNSLKSEDTAVYYCADWTGEVDIHYYWGQGTQVTVSS,low polyreactivity
5,QVQLQESGGGLVQAGGSLRLSCAATGSIYHLHIMCWYRKAPGKERESVAAISYGTSTYYADSVKGRFTICRDNAKNTVYLQMNSPKPDDTAVYYCAALFLVYKHHHYWGEGTQVTVSS,low polyreactivity
6,QVQLQESGGGLVQAGGSLRLSCAPSGTITVLYKMGWFRQAPGKEGEFVASINYGTSTYYADSVKGRFTVSRDRAKNTVYLQMNSLKPEDTAVYYCAAAYRWQDVYRYWGQGTQVTVSS,low polyreactivity
7,QVQLQESGGGLVQAGGSLRLSCASSGSIFKVVDKGLYRQAPAKEREFVATIGEGGNTYYADSVKGRFTISRDNAKNTVYLQMNSLKPEDTAVYFYAVVLGTSYRYTYWGQGTQVTVSS,low polyreactivity
8,QVQLQESGGGLVQAGGSLRLSCAVSGTIFFPQDKGWYRQAPGREREYGAAIAEGTSTYYADSVKGRFTISRDNAKNTVYPQMYSLKPEDTEVNYCAAYRSTPQQFLYWGQGTQVTVSS,high polyreactivity
9,QVQLQESGGGLVQAGGSLRLTCAASGNISVTGFMGCYRQAPGKERELVASIGIGGTTYYADSVKGRFSISRDNAKNTVYLEMHSLKPEDTAVYYCAARYLYYAYSYWGQGTQVTVSS,low polyreactivity
10,QVQLQESGGGLVQAGGSLRLTCAASGSIFDGFNMGWYRQAPGKDREFVDAISYGASTYYADSVKGRFTVSRDNAINSVYLQMNSLKPEDTALYYWAVYDELYHVLVYWGRGTQVTVSS,low polyreactivity
11,QVQLQESGGGLVQAGGSLRLTCAASGTIFRFRYMGWPRQAPGKERELVAGINGGTTTYYADSVIGRFTISRDNAKNTVYLQRNSLKPDDTAVYNCAAGASRLTYYDYWGQGTQVTVSS,low polyreactivity
12,QVQLQESGGGLVQAGGSLRLWCAASRNISGSSDLGWYHQAPGKEREFVASITSGGTTYYADSVKGRFTISRDNAKNTVYLQMNSLKPEDTAVYYCAVGDPADAEFGYWGQGTQVTVSS,low polyreactivity
13,QVQLQESGGGLVQAGGSLRMSCAASGNIFDADIMGWYRQAPGKERELVASITDGRRTNYADSVKGRYTISRDSEKNTVYLQMNSLKPEDTAVYYCAAIAYPVVPTYFDYDSDYFHWGQGTQVTVIS,high polyreactivity
14,QVQLQESGGGLVQAGGSLRMSCAASGTIVSEANMGWYRQAPGKERELVATIGQGSTTNYADSVKGRFTISRDNAKNTVYLQMNSLKPEETAVYYCAVVTVDPVGFVYWGQGTQVTVSS,low polyreactivity
15,QVQLQESGGGLVQAGGSLRPRCAAGGTIFVSVNMGWYRHAPGEELEFVASITQGATTNYADSLIGRFTISRDNAKNTVYLQMNCQNQEDTAVYYCAVHESGGITFTYWGQGTQVTVSS,high polyreactivity
16,QVQLQESGGGLVQAGGSLRPSCAASGSISDGVPMGWYRQAPGEERELVATTVLGATTNYADSVKGRFTISRGNAKNTVYLQMNSLKPEETEVYYCAAPLRYDKGFSYWGQGTQVTVSS,low polyreactivity
17,QVQLQESGGGLVQAGGSLRQSYAASGYIFPSLAMGWYRQAPGKEREFVAAIGRGSTNNYADSVKGRFTISRDNAKNTAYQQMISLKPEDTAVYYCAAAASPLTRHLYWGQGTQVSVSS,low polyreactivity
18,QVQLQESGGGLVQAGGSMRLSCAASGSISELRPMGWYRQAPGKERELVAGISTGGSTNYADSVKGRFTISRDNAKNTVYLQMNSLKPEDTAVYYCAAALSNVRNVRSPYDYWGQGTQVTVSS,high polyreactivity
19,QVQLQESGGGLVQAGGTLRLSCAANGNISYSNPMGWYRQPPGKEREFVASINPGSTTNYMDSVKGRFTISRDNAKNTVYLQMNSLKPEDTAVYYCNSVFFKSRQGQMYYWGQGSQVTVSS,high polyreactivity
20,QVQLQESGGGLVQASGSIFHEPNMGWHRQAPGKERELVATISDGAITNYADSVKGRFTISRDNAKNTVYLQMNSLKPEDTAVYYCAVVVHLYTDLRYWGQDTQVTVSS,high polyreactivity
